Experimental data reported in IntAct's records for PubMed 15585574.

Biological target: wasl_mouse Wasl (UniProt Q91YD9)
Sequence (Q91YD9 whole entry): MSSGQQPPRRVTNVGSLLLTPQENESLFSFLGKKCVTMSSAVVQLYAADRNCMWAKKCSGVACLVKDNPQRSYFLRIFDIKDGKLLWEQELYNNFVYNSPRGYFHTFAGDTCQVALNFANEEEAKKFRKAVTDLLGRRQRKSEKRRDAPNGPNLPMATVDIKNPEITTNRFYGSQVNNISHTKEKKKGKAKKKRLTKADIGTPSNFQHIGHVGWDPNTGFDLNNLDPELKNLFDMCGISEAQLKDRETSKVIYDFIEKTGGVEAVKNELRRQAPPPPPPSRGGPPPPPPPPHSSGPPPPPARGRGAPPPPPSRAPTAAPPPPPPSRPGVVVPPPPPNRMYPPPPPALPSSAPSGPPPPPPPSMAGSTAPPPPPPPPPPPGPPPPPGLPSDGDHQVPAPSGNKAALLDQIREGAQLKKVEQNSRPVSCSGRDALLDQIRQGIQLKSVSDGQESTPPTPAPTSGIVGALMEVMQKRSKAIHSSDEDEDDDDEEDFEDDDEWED

Sequence of Src substrate cortactin (Mus musculus), Q60598 W525L (Q60598 whole entry W525L): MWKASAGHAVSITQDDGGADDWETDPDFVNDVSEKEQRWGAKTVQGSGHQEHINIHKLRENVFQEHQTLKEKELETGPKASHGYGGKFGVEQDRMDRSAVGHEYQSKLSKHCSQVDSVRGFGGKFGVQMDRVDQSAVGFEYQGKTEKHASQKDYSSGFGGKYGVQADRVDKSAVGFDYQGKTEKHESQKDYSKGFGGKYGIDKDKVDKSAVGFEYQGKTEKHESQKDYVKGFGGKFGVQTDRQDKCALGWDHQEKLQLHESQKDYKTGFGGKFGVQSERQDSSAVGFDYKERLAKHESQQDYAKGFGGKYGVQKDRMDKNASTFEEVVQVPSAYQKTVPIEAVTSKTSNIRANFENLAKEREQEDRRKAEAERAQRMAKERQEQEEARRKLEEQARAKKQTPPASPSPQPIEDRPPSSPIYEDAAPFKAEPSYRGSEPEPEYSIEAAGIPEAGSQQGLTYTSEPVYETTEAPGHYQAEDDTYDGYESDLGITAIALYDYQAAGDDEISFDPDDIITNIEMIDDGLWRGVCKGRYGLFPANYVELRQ

## Src substrate cortactin (Mus musculus), Q60598 W525L
  effect of a mutation on the interaction: disrupting interaction
